This assay deals with Flag-β2AR (UniProt P07550). The assay is described as follows: cell-based or functional assay.

β-arrestin2 (from UniProt P29067 1-410): the β2AR degradation after 24 hrs of isoproterenol treatment (125I CYP binding on whole HEK 293 cells; mock about 25%) is 6 to 7%.

The values above are taken from US20060263828A1.
